Laboratory results taken from patent publication US20130164256A1 (AbbVie / Abbott, published 2013).
Substitutions are numbered along the chain they refer to. Read-outs that look alike come from different tables or passages of the source.

B1: AE11-5 AM4 (antibody, V domains shown)
VH: EVQLVQSGAEVKKPGSSVKVSCKASGGTFSWYAISWVRQAPGQGLEWMGGITPILGSPIYAQKFQGRVTITADESTSTVYMELSSLRSEDTAVYYCARGVYYDPKRADYWGQGTLVTVSS
VL: EIVLTQSPDFQSVTPKEKVTITCRASQRIGSSLHWYQQKPDQSPKLLIKHASQSVSGVPSRFSGSGSGTDFTLTINSLEAEDAATYYCHQSRSSPPPTFGQGTKVEIK
notes: Full length IgG converted from scFv clone J703M1S3#30; Human IgG1 (hCg1,z,non-a,mut(234,235)) with human kappa; also called J703M1S3#30
B2: AE11-5 AM2 (antibody, V domains shown)
VH: B1 VH with S57A, P58A, I59N
VL: EIVLTQSPDFQSVTPKEKVTITCRASQSIGSTLHWYQQKPDQSPKLLIKHASQSNSGVPSRFSGSGSGTDFTLTINSLEAEDAATYYCHQSSSLPPPTFGQGTKVEI
notes: Full length IgG converted from scFv clone J703M1S3#13; Human IgG1 (hCg1,z,non-a,mut(234,235)) with human kappa; also called J703M1S3#13
B3: AE11-5 AM3 (antibody, V domains shown)
VH: B1 VH with S57T, P58A, I59N
VL: B1 VL with R28S, S32R, V55T, R92G, P97R
notes: Full length IgG converted from scFv clone J703M1S3#26; Human IgG1 (hCg1,z,non-a,mut(234,235)) with human kappa; also called J703M1S3#26
B4: AE11-5 AM10 (antibody, V domains shown)
VH: B1 VH with P104Y
VL: B1 VL with R28S, S32N, V55I, S91T, S93T, P97L
notes: Full length IgG converted from scFv clone J703M1S3#90; Human IgG1 (hCg1,z,non-a,mut(234,235)) with human kappa; also called J703M1S3#90
B5: AE11-5 AM6 (antibody, V domains shown)
VH: B1 VH with P58A, I59T, V100I
VL: B1 VL with R28T, V55I, S91T, R92S, S94L, P96T
notes: Full length IgG converted from scFv clone J703M1S3#35; Human IgG1 (hCg1,z,non-a,mut(234,235)) with human kappa; also called J703M1S3#35
B6: AE11-5 AM8 (antibody, V domains shown)
VH: B1 VH with S57T, P104F
VL: B1 VL with R28T, V55I, R92S
notes: Full length IgG converted from scFv clone J703M1S3#38; Human IgG1 (hCg1,z,non-a,mut(234,235)) with human kappa; also called J703M1S3#38
B7: AE11-5 AM1 (antibody, V domains shown)
VH: B1 VH with I34T, P104H, K105R
VL: B1 VL with R28S, S31N, S32T, A51V, S91K, R92V, P96S
notes: Full length IgG converted from scFv clone J703M1S3#2; Heavy chain plasmid is pHybE-hCg1,z,non-a,mut(234,235), i.e. human IgG1 with mutations at 234 and 235; Light chain plasmid is pHybE-hCk, i.e. human kappa; also called J703M1S3#2
B8: AE11-5 AM5 (antibody, V domains shown)
VH: B1 VH with A33P, S57A, P58G, P104F
VL: B1 VL with R28S, V55T, R92S, P97S
notes: Full length IgG converted from scFv clone J703M1S3#33; Human IgG1 (hCg1,z,non-a,mut(234,235)) with human kappa; also called J703M1S3#33
B9: AE11-5 AM9 (antibody, V domains shown)
VH: B1 VH with V100I
VL: B1 VL with R28S, A51V, V55L, S91R, R92S, P96S
notes: Full length IgG converted from scFv clone J703M1S3#69; Human IgG1 (hCg1,z,non-a,mut(234,235)) with human kappa; also called J703M1S3#69
B10: hMAK195-AM20 (antibody, V domains shown)
VH: EVQLVESGGGLVQPGGSLRLSCAASGFTFSNYGVTWVRQAPGKGLEWVSMIWADGSTHYASSVKGRFTISRDNSKNTLYLQMNSLRAEDTAVYYCAREWQHGPVAYWGQGTLVTVSS
VL: DIQMTQSPSSLSASVGDRVTITCKASQLVSSAVAWYQQKPGKAPKLLIYWASTRHTGVPSRFSGSGSGTDFTLTISSLQPEDFATYYCQQHYSTPFTFGQGTKLEIKR
B11: hMAK195-AM26 (antibody, V domains shown)
VH: B10 VH with T35S, S61D, S62T, V104L
VL: B10 VL with K24R, S93R
B12: hMAK195-AM15 (antibody, V domains shown)
VH: B10 VH with A53S, H58D
VL: B10 VL with L28A
B13: hMAK195-AM13 (antibody, V domains shown)
VH: B10 VH with T35S, M50L, W52R, A53G, H58D, V63L, Q100H
VL: B10 VL with L28A
B14: hMAK195-AM21 (antibody, V domains shown)
VH: B10 VH
VL: B10 VL with K24R, T53A, S93K
B15: hMAK195-AM19 (antibody, V domains shown)
VH: B10 VH with T35S, V63L, V104A
VL: B10 VL with L28A
B16: hMAK195-AM22 (antibody, V domains shown)
VH: B10 VH
VL: B10 VL with K24R, T56S, S93R
B17: hMAK195-AM11 (antibody, V domains shown)
VH: B10 VH with T35N, W52A, S56F, H58D, Q100H
VL: B10 VL with L28A
B18: hMAK195-AM23 (antibody, V domains shown)
VH: B10 VH with S61D, G65S, V104L
VL: B10 VL with K24R, R54L, T56S
B19: hMAK195-AM24 (antibody, V domains shown)
VH: B10 VH with T35E, M50G, S61D, S62T, G65S
VL: B10 VL with R54L, S93R
B20: hMAK195-AM18 (antibody, V domains shown)
VH: B10 VH with V104S
VL: B10 VL with L28A
B21: hMAK199-AM5 (antibody, V domains shown)
VH: EVQLVQSGAEVKKPGASVKVSCKASGYTFRNYGIIWVRQAPGQGLEWMGWINTYTGKPTYAQKFQGRVTMTTDTSTSTAYMELSSLRSEDTAVYFCARKLFTTVDVTDNAMDYWGQGTTVTVSS
VL: DIQMTQSPSSLSASVGDRVTITCRASQDISNYLNWYQQKPGKAPKLLIYYTSRLQSGVPSRFSGSGSGTDYTLTISSLQPEDFATYFCQQGNTWPPTFGQGTKLEIK
B22: hMAK199-AM9 (antibody, V domains shown)
VH: B21 VH with R30S, I35N, K57Q, T59S, F95Y, T102K, V104E, D105A, N109Y
VL: B21 VL with D28N, S30Y, Y32V, T51A, Y71F, W94M
B23: hMAK199-AM6 (antibody, V domains shown)
VH: B21 VH with R30N, I35N, L100F, F101R, T102N, D105A, N109Y
VL: B21 VL with S30Y, N31D, Y32V, T51A, Y71F, F87Y, N92I, W94L
B24: hMAK199-AM4 (antibody, V domains shown)
VH: B21 VH with R30N, F95Y, T102N, D105A
VL: B21 VL with S30E, Y71F, W94Q
B25: hMAK199-AM10 (antibody, V domains shown)
VH: B21 VH with R30N, T55S, V104M
VL: B21 VL with Y32F, W94Q
B26: hMAK199-AM2 (antibody, V domains shown)
VH: B21 VH with R30N, F64L, T102N
VL: B21 VL with T93S
B27: hMAK199-AM7 (antibody, V domains shown)
VH: B21 VH with I35T, V104M
VL: B21 VL
B28: hMAK199-AM3 (antibody, V domains shown)
VH: B21 VH with R30N, K57V, F95Y, T102N
VL: B21 VL with S30Y, W94Q

Experiments:
cynomolgus monkey TNF = biological target: T1, cynomolgus monkey TNF (cynomolgus monkey, UniProt P79337 77-233, limits assumed, biotin label in the ELISA (site not stated)); assay: ELISA; IgG captured on goat anti-human IgG-Fc, serially diluted biotinylated cyno TNF, streptavidin-HRP
T1 construct: also called cynoTNF; cyno TNF
Method: (§1) The following protocol is used to characterize the binding of TNF antibodies to biotinylated human or cyno TNF by enzyme-linked immunosorbent assay (ELISA). An ELISA plate was coated with 50 μl per well of goat anti human IgG-Fc at 2 μg/ml, overnight at 4° C. The plate was washed 3 times with PBS/Tween. 50 μl Mab diluted to 1 μg/ml in PBS/0.1% BSA was added to appropriate wells and incubated for 1 hour at room temperature (RT). The plate was washed 3 times with PBS/Tween. 50 μl of serial diluted biotin-human TNF was added to appropriate wells and incubated for 1 hour at RT. The plate was washed 3 times with PBS/Tween. 50 μl of streptavidin-HRP diluted 1:10,000 in PBS/0.1% BSA was added to appropriate wells and incubated for 1 hour at RT. The plate was washed 3 times with PBS/Tween. 50 μl of TMB was added to appropriate wells and the reaction was allowed to proceed for 1 minute. The reaction was stopped with 50 μl/well 2N H₂SO₄ and the absorbance read at 450 nm.

human TNF-α [1] = biological target: T2, human TNF-α (human, UniProt P01375 77-233, biotin label in the ELISA (site not stated); unlabelled in the L929 bioassay); assay: ELISA; IgG captured on goat anti-human IgG-Fc, serially diluted biotinylated human TNF, streptavidin-HRP
T2 construct: also called hTNF; hTNF-α
Method: as §1

human TNF-α [2] = biological target: T2, human TNF-α; assay: cell-based or functional assay
Rhesus/Macaque TNF [3] = biological target: Rhesus/Macaque TNF (Rhesus/Macaque, UniProt P48094 77-233); assay: cell-based or functional assay
Target sequence in this assay (P48094 77-233 limits assumed): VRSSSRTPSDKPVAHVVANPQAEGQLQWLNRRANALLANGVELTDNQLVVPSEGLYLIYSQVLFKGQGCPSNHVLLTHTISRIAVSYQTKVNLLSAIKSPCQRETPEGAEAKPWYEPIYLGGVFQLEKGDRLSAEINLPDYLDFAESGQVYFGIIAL

Rhesus/Macaque TNF [4] = biological target: Rhesus/Macaque TNF (rhesus/macaque, UniProt P48094 77-233); assay: cell-based or functional assay
Rhesus/Macaque TNF [5] = biological target: Rhesus/Macaque TNF (Rhesus/Macaque, UniProt P48094 77-233); assay: cell-based or functional assay; remark: listed apart in the source
Target sequence in this assay (P48094 77-233 limits assumed): as above

T1 sequence (P79337 77-233 limits assumed): as the sequence (P48094 77-233 limits assumed) above, with L37V counted along it
T2 sequence (P01375 77-233 R107D limits assumed): as the sequence (P48094 77-233 limits assumed) above, with R31D, T44R, N72T, L138R counted along it
Rhesus/Macaque TNF (rhesus/macaque, UniProt P48094 77-233), sequence (P48094 77-233 limits assumed): as the sequence (P48094 77-233 limits assumed) above

Row | Binder | EC50 (human TNF-α [1]) [nM] | hu TNF neutralization IC50 (human TNF-α [2]) [nM] | rhesus TNF neutralization IC50 (Rhesus/Macaque TNF [3]) [nM] | rhesus TNF neutralization IC50 (L929 bioassay) (Rhesus/Macaque TNF [4]) [nM] | also measured
1 | B1 | 18.3 | 0.259 | 0.109 | – | EC50 (cynomolgus monkey TNF): 750 nM
2 | B2 | 522 | 1.24 | 0.756 | – | –
3 | B3 | 1.57 | 0.291 | 0.165 | – | EC50 (cynomolgus monkey TNF): 1.55 nM
4 | B4 | 0.98 | 0.678 | 0.14 | – | EC50 (cynomolgus monkey TNF): 0.28 nM
5 | B5 | 1.37 | 2.03 | 0.652 | – | –
6 | B6 | 250 | 1.36 | 3.04 | – | EC50 (cynomolgus monkey TNF): 58.6 nM
7 | B7 | 1.06 | 0.439 | 0.251 | – | EC50 (cynomolgus monkey TNF): 2.14 nM
8 | B8 | 17.7 | 0.968 | 0.613 | – | EC50 (cynomolgus monkey TNF): 2.2 nM
9 | B9 | 16.7 | 0.391 | 0.123 | – | EC50 (cynomolgus monkey TNF): 5.29 nM
10 | B10 | – | – | – | 0.596 | –
11 | B11 | – | – | – | 0.249 | –
12 | B12 | – | – | – | > 150 | –
13 | B13 | – | – | – | 4.64 | –
14 | B14 | – | – | – | 0.09 | –
15 | B15 | – | – | – | 1.21 | –
16 | B16 | – | – | – | 0.271 | –
17 | B17 | – | – | – | > 25 | –
18 | B18 | – | – | – | 2.63 | –
19 | B19 | – | – | – | 0.557 | –
20 | B20 | – | – | – | 0.441 | –
21 | B21 | – | – | – | – | rhesus TNF neutralization IC50 (Rhesus/Macaque TNF [5]): 0.02 nM
22 | B22 | – | – | – | – | rhesus TNF neutralization IC50 (Rhesus/Macaque TNF [5]): 0.089 nM
23 | B23 | – | – | – | – | rhesus TNF neutralization IC50 (Rhesus/Macaque TNF [5]): 0.004 nM
24 | B24 | – | – | – | – | rhesus TNF neutralization IC50 (Rhesus/Macaque TNF [5]): 0.005 nM
25 | B25 | – | – | – | – | rhesus TNF neutralization IC50 (Rhesus/Macaque TNF [5]): 0.034 nM
26 | B26 | – | – | – | – | rhesus TNF neutralization IC50 (Rhesus/Macaque TNF [5]): 0.01 nM
27 | B27 | – | – | – | – | rhesus TNF neutralization IC50 (Rhesus/Macaque TNF [5]): 0.051 nM
28 | B28 | – | – | – | – | rhesus TNF neutralization IC50 (Rhesus/Macaque TNF [5]): 0.019 nM
